Non-standard residues stand in square brackets, D forms with d. No end group written: not given here. *: point of attachment. Biotin = O=C1N[C@H]2[C@H](CS[C@H]2CCCCC(=O)*)N1; Arg(Me2a) = CN(C)C(=N)NCCC[C@H](N)C(=O)O

The target in this assay is T1, Target peptide (meEGFR R198/R200) (human, cysteine pairing not given here).
T1 chain: K(Biotin)QCSG[Arg(Me2a)]C[Arg(Me2a)]GKSPSDC-NH2

B1: Example 3 (antibody, V domains shown)
VH: QVQLQESGPGLVKPSGTLSLTCAVSGDSISSSSYYWGWIRQPPGKGLEWIGSIYYSGSTYYNPSLKSRVTISVDTSKNQFSLKLSSVTAADTAVYYCAREWNGLDVWGKGTLVTVSS
VL: LNFMLTQPHSVSESPGKTVTISCTGSSGSIASNYVQWYQQRPGSAPTTVIYEDNQRPSGVPDRFSGSIDSSSNSASLTISGLKTEDEADYYCQSYDRGNTEVMFGGGTKVTVLG
The term EC50 denotes the concentration needed to bring the measured effect to its halfway point. Low values mean greater potency, high ones weaker potency. B1 showed an EC50 of 0.0258 nM.

B2: Example 2 (antibody, V domains shown)
VH: QVQLQESGPGLVKPSETLSLTCSVSGDSITRSGYYWAWVRQSPGKGLEYIGSISYSGTTYYNPSLKSRVTISVDTSKNQFSLKLSSVTAADTAVYYCAREWNGLDVWGKGTMVTVSS
VL: LNFMLTQPHSVSESPGKTVTISCTRSSGSIASNYVQWYQQRPGSSPTTVIYEDNQRPFGVPDRFSGSIDSSSNSASLTISGLKTEDEADYYCQSYDSGHQIFGGGTKLTVLG
The molecule B2 came in with an EC50 of 0.0359 nM.

Source of the values: patent US20260347481 (published 2026).
